Results reported in publication PMC8024308, “Epitope-directed monoclonal antibody production using a mixed antigen cocktail facilitates antibody characterization and validation” (Communications Biology, 2021).

Molecular target: the molecule itself
Assay: ELISA; two-site sandwich ELISA with the same mAb (30D12 or 4F2) as coated capture (5 ug/ml) and as biotinylated detector (1 ug/ml); recombinant hANKRD1 at 20 ng/ml; self-pairing read as dimer

B1: recombinant human ankyrin repeat domain 1 (hANKRD1; OriGene Technologies) (natural protein)
chain: not shown
notes: human ankyrin repeat domain 1 (ANKRD1), full-length recombinant protein, N-terminal His-tagged, OriGene Technologies; expected mass 43 kDa; The preparation holds monomer (43 kDa) and dimer (86 kDa) on non-reducing SDS-PAGE; also called recombinant hANKRD1; source: bought: OriGene Technologies (bacterially derived recombinant preparation)
binding result: binds
